From the supplement of paper PMC6755084

B1: minF1; the commonest letter at each place (parent)
chain: GAGACCGCAACTGAAAAGTTGTTATCAGAAATGGATGGGTTGAATTTCTGCACGTAGAAGCAAAAGGC

Variants of: B1
Test: fraction ligated after 30 min (ligated reads / total reads); higher = more ligase activity
Settings: with F1*subA RNA substrate (template-directed ligation), 42 °C
How it was run: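 Templates from an oligo pool encoding minimized ligase ribozyme variants were amplified by PCR, transcribed with T7, and purified on gels. Gel electrophoresis separated ligated from unligated RNAs, which were then reverse transcribed using barcoded primers and sequenced on a MiSeq, keeping core bases with quality ≥30. For each variant, fraction ligated equals ligated reads divided by total reads.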

Variant	fraction ligated
A35T G37A	0.00299
A35T G37C	0.00461
A35T A44T	0.00912
A35T A44G	0.0054
A35T A44C	0.00563
G42A A43G A44G	0.00352
G42A A43G A44C	0.00251
G42A A43G A44T	0.00363
G33T A44T	0.299
G33T A44G	0.249
G37A	0.00659
G37C	0.00417
G37T	0.0174
G34C G37C	0.00307
G34C G37T	0.00343
G34C G37A	0.00257
A35C G37T	0.00578
A35C G37A	0.00266
A35C G37C	0.00352
G34T	0.00484
G34C	0.00469
G34A	0.0464
G34A A44G	0.019
G34A A44C	0.008

Variant	fraction ligated
G34A A44T	0.0265
G33T G37A	0.00704
G33T G37T	0.00922
G33T G37C	0.00397
G34T G42A	0.00242
G34T G42T	0.00241
G34T G42C	0.00101
G34T A35T	0.00561
G34T A35C	0.00324
G34T A35G	0.0067
T36A A43G	0.00353
T36A A43C	0.0049
T36A A43T	0.00522
G34C T36A	0.00257
G34C T36G	0.00561
G34C T36C	0.00419
G42C A44C	0.00284
G42C A44G	0.00439
G42C A44T	0.00542
G37A A44G	0.00429
G37A A44C	0.00309
G37A A44T	0.00574
G33T G42A	0.0913
G33T G42T	0.0256

Variant	fraction ligated
G33T G42C	0.0103
G42A A43T A44G	0.000353
G42A A43T A44T	0.00133
G42A A43T A44C	0.00312
A43C A44T	0.00456
A43C A44C	0.00194
A43C A44G	0.00638
A35C G42T	0.00281
A35C G42C	0.00254
A35C G42A	0.00288
G37T G42A	0.00778
G37T G42C	0.00492
G37T G42T	0.00146
A35G G42T	0.00567
A35G G42A	0.0121
A35G G42C	0.00281
T36G G37C	0.0044
T36G G37A	0.00776
T36G G37T	0.00976
G34A A43T	0.00502
G34A A43C	0.00464
G34A A43G	0.00716
A35T T36A	0.0108
A35T T36G	0.00748

Variant	fraction ligated
A35T T36C	0.00257
A35G A43C	0.00434
A35G A43T	0.0109
A35G A43G	0.00504
G33T T36A	0.0253
G33T T36G	0.0372
G33T T36C	0.0104
G42C A43G A44C	0.000834
G42C A43G A44T	0.00288
G42C A43G A44G	0.00392
A44G	0.79
A44T	0.794
A44C	0.646
A35C A44T	0.0114
A35C A44G	0.00784
A35C A44C	0.00567
A35T A43C	0.00462
A35T A43T	0.00405
A35T A43G	0.0022
T36G A44G	0.00979
T36G A44C	0.00345
T36G A44T	0.0156
G34C A43T	0.0056
G34C A43G	0.00118

Variant	fraction ligated
G34C A43C	0.00266
G37T A44T	0.0093
G37T A44C	0.00343
G37T A44G	0.0087
G42C A43T A44G	0.0022
G42C A43T A44T	0.00299
G42C A43T A44C	0.000795
G37C A44T	0.00681
G37C A44G	0.00293
G37C A44C	0.00161
A35T	0.037
A35G	0.271
A35C	0.0267
G42C A43C A44C	0.00224
G42C A43C A44G	0.00342
G42C A43C A44T	0.00191
G34T T36C	0.00276
G34T T36G	0.00275
G34T T36A	0.00722
G37A G42A	0.00332
G37A G42T	0.00089
G37A G42C	0.00225
G33T G34C	0.00646
G33T G34A	0.051

Variant	fraction ligated
G33T G34T	0.00514
G37T A43T	0.00731
G37T A43G	0.00602
G37T A43C	0.00313
G34A T36A	0.0315
G34A T36C	0.0256
G34A T36G	0.0395
A35G T36A	0.00856
A35G T36G	0.00747
A35G T36C	0.00252
T36G A43T	0.00809
T36G A43C	0.00461
T36G A43G	0.00457
A35C A43C	0.00377
A35C A43G	0.00754
A35C A43T	0.00614
A43T	0.13
A43C	0.115
A43G	0.0856
G42T A43C	0.000975
G42T A43T	0.00326
G42T A43G	0.115
G42T A43C A44G	0.00164
G42T A43C A44T	0.0038

Variant	fraction ligated
G42T A43C A44C	0.00131
T36C A43T	0.00367
T36C A43G	0.00496
T36C A43C	0.00423
G34T A43T	0.00646
G34T A43G	0.0028
G34T A43C	0.00412
T36G G42C	0.00216
T36G G42A	0.00463
T36G G42T	0.000662
G34C A35T	0.00667
G34C A35C	0.00352
G34C A35G	0.00539
G42T A43G A44G	0.00264
G42T A43G A44C	0.00145
G42T A43G A44T	0.00254
G42A A43G	0.0596
G42A A43C	0.0101
G42A A43T	0.00678
unchanged	0.761
T36C	0.0157
T36G	0.0461
T36A	0.0309
